# Experimental data published in patent publication US6127144, “Method for expression of proteins in bacterial host cells” (Cangene Corporation, dated 2000).
# No end group written: not given here. *: point of attachment. CH2Cl = ClC*
# T1: D-phenylalanyl-L-prolyl-L-arginine beta-napthylamide
# T1 sequence (peptide, D-phenylalanine at position 1; C-terminal beta-naphthylamide): FPR
# T2: GPM-bNA
# T2 sequence (peptide, C-terminal beta-naphthylamide): GPM
# T3: L-alanyl-L-prolyl-L-phenylalanine beta-naphthylamide
# T3 sequence (peptide, C-terminal beta-naphthylamide): APF
# T4: tripeptidyl aminopeptidase-S (Tap) of Streptomyces lividans 66 (Streptomyces lividans 66)
# T4 chain: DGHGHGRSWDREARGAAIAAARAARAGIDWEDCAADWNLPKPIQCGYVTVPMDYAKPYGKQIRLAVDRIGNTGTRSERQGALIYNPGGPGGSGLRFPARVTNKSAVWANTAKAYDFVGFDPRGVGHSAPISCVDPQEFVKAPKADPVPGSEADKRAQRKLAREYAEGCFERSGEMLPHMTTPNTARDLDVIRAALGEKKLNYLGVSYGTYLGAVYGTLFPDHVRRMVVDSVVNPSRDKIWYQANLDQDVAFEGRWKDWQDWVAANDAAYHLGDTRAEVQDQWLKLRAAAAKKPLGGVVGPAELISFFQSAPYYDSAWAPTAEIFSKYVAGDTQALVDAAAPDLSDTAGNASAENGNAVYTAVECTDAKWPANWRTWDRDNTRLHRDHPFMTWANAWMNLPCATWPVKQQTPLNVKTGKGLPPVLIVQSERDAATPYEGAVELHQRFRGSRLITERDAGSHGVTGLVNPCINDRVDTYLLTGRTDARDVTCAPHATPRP
# B1: tripeptidyl aminopeptidase-S (Tap) of Streptomyces lividans 66 (enzyme)
# chain: T4 chain
# B2: L-alanyl-L-prolyl-L-alanine chloromethylketone (peptide)
# peptide: Ala-Pro-Ala-CH2Cl
# modifications: also: hydrochloride salt
# Assays:
# [1] = biological target: Boc-APARSPA-bNA
# [2] = biological target: APA-bNA
# [3] = biological target: T1, D-phenylalanyl-L-prolyl-L-arginine beta-napthylamide
# [4] = biological target: T2, GPM-bNA
# [5] = biological target: T3, L-alanyl-L-prolyl-L-phenylalanine beta-naphthylamide
# [6] = biological target: tripeptidyl aminopeptidase-S (Tap) of Streptomyces lividans 66 (Streptomyces lividans 66)
# [7] = biological target: T4, tripeptidyl aminopeptidase-S (Tap) of …; assay: inactivation kinetics of purified Tap on ice, residual activity with APA-pNA (Example 8)
# Experimental: A stock solution of 1.1 uM Tap in 50 mM Tris-HCl, pH 8.0 was prepared. APACMK stock solutions of 11 uM, 13.8 uM, 17.3 uM, 21.7 uM, 27.0 uM, 54.0 uM, 108 uM, and 1.08 mM were prepared. The Substrate Solution was 50 mM Tris-HCl, pH 8.0, 0.8 mM APA-pNA. The inactivation was performed by placing 90 ul of Tap […] in a 1.5 ml Eppendorf tube on ice and adding 10 ul of water (uninhibited control) or 10 ul of APACMK. A 10 ul aliquot was removed immediately and was assayed by adding it to a cuvette containing 390 ul Substrate Solution at 22° C. The initial velocity was obtained from the change in absorbance at 405 nm during the first 10 seconds of the assay. Additional aliquots were removed at time points and assayed by the same method. At APACMK concentrations greater than 5.0 uM in the incubation, it was not possible to remove an aliquot from the incubation before 90% inactivation occurred.
molecule,measurement,setting,value
soluble SlpE secreted from AP6.SlpE (enzyme),"A540, Boc-APARSPA-bNA assay on 20 µl cell-free broth",[1],0.084 A540
soluble SlpD secreted from AP6.SlpD (enzyme),"A405, APA-bNA assay on 20 µl cell-free broth",[2],1.15 A405
same,"A540, Boc-APARSPA-bNA assay on 20 µl cell-free broth",[1],0.278 A540
B1,Tripeptidyl Aminopeptidase Activity (A540 above background) (A540 above background),[3],0.02
same,Tripeptidyl Aminopeptidase Activity (A540 above background) (A540 above background),[4],> 3
same,Tripeptidyl Aminopeptidase Activity (A540 above background) (A540 above background),[5],> 3
B2,"inactivation of Tap, residual activity assayed with APA-pNA",[6],> 99%
same,kinact,[6],0.14 min⁻¹
same,Ki,[7],3.3 µM
